The values below come from patent publication US12356911B2, “Group of UDP-glycosyltransferase for catalyzing carbohydrate chain elongation and application thereof” (GSYNBIOT (SHANGHAI) CO., LTD, priority 2017, dated 2025).

Type in all cases: biochemical
Series [1] can be described thus: In vitro transglycosylation at C-3, Rh2 as glycosyl acceptor, UDP-glucose as donor. The following applies: crude enzyme (E. coli lysate supernatant); TLC, FIG. 13, FIG. 15. An excerpt: (§1) Cell lysate of recombinant E. coli with empty vector pET28a was used as a control.
A short description of series [2]: In vitro transglycosylation at C-20, CK as glycosyl acceptor, UDP-glucose as donor. Particulars: crude enzyme (E. coli lysate supernatant); TLC/HPLC, FIG. 2, 3, 12, 16.
Text: as §1
As shown in FIG. 16: Protopanaxadiol Ginsenoside CK is used as a glycosyl acceptor, and UDP-glucose is used as a glycosyl donor.

Series [3] in a line: In vitro transglycosylation at C-20, Rd as glycosyl acceptor, UDP-glucose as donor. The following applies: crude enzyme (E. coli lysate supernatant); TLC/HPLC, FIG. 2, 3, 11.
Text: as §1

B1: GT29-45: Ginseng UDP-glycosyltransferase, 448 amino acids, SEQ ID NO.: 98 (protein)
chain: MDIEKGRISIVMLPFLAHGHISPFFELAKHLSKRNCNIFLCSTPINLSSIKNRVSDKDSSASIKLVELHLPSSPDLPPHYHTTNGLPSHLMVPLRNAFETAAPTFSEILKTLNPDLLIYDFNPSWAPEIASSHNIPAVYFLTSAAATSSMGLHAFKNSGEKYPFPDFYDNSNITPEPPSADKMKLFHDFVACFKRSCDIILIKSFRELEGKYIDFLSTLSKKTLVPVGPLVQDPMGHDEDPKTGHLINWLDKRAESTVVFVCFGSEYFPSNEELEELAIGLEISMVSFILAVRFPEGEKKGILPEGFVQRVGDRGLVVEGWAPQARILGHSSTGGFVSHCGWSSIMESVKFGVPVIAMARHLDQPLNAKLAAEVGVGMEVMRDENGKYKREAIAEVIRKVVMEKNGEVMRRKARELSEKMKVKGEQEIGRAVEELVQICKKKKQHAQY
modifications: Panax ginseng
Consider B1, for which the “product formation from Rh2 and UDP-glucose (Rg3)” value (from here on “product formation … (Rg3)”) in series [1] is “can all catalyze the extension of a glucosyl at the C-3 glycosyl of Rh2 to generate Rg3”. In addition, the “product formation from CK and UDP-glucose (Gypenoside LXXV)” value (“product formation … (Gypenoside LXXV)” below) in series [2] was “can catalyze the C-20 glycosyl of CK to extend a glucosyl to produce Gypenoside LXXV”.

B2: GT29-46: Ginseng UDP-glycosyltransferase, 442 amino acids, SEQ ID NO.: 100 (protein)
chain: MDNQEGRISIALLPFLAHGHISPFFELAKQLAKRNCNVFLCSTPINLSSIKNKDSSASIKLVELHLPSSPDLPPHYHTTNGLPSHLMVPLINAFETAGPTFSEILKTLNPDLLIYDFNPSWAPEIASSHNIPAVYFLTTAAASSSIGLHAFKNPGEKYPFPDFYDNSNNTPEPPSADNMKLLHDFIACFERSCDIILIKSFIELEGKYIDLLSTLSDKTLVPVGPLVQDPMGHNEDPKTEQIINWLDKRAESTVVFVYFGSEYFLSNEELEEVAIGLEISMVNFIWAVRLIEGEKKGVLPEGFVQRVGDRGLVVEGWAPQARILGHSSTGGFVSHCGWSSIAESMKFGVPVIAMARHLDQPLNGKLAAEVGVGMEVVRDENGKYKREGIAEVIRKVVVEKSGEVMRRKARELSEKMKEKGEEEIDRAVEELVQICKKKKDAQ
modifications: primer
B2: in series [1], the “product formation … (Rg3)” value is “can all catalyze the extension of a glucosyl at the C-3 glycosyl of Rh2 to generate Rg3”. Further, the “product formation … (Gypenoside LXXV)” value in series [2] is given as “can catalyze the C-20 glycosyl of CK to extend a glucosyl to produce Gypenoside LXXV”.

B3: PNUGT29-14: Panax notoginseng glycosyltransferase, 447 amino acids, SEQ ID NO: 57 (protein)
chain: MYIEKGRISIVMLPFLAHGHISPFFELAKHLSKRNCNIFLCSTPINLSSIKNRVSDKDSSASIKLVELHLPSSPDLPPQYHTTNGLPSHLMVPLKNAFETVGPTFSEILKTLDPDLLIYDFNPSWAPEIALSHNIPAVYFLTSAAATSSVALRALKNPGEKYPFPDFYDNSNITPEPPSADKMKLFHDFVACFKRSCDIILIKSFRELEGKYIDLLSTLSKKTLVPVGPLVQDPLGHDEDPKTGHLINWLDKRAESTVVFVCFGSEYFPSNEELEEVAIGLEISMVNFILAVRFLEGEKKGVLPEGFVQRVGDRGLVVEGWAPQARILGHSSTGGFVSHCGWSSIMESVKFGVPVIAMARHLDQPLNAKLAAEVGVGMEVVRDENGKYKREAIAEVIRKVVMEKNGEVIRRKARELSEKMKETGEQEIGRAVEELVQICKMKKDAQY
modifications: Panax notoginseng
Regarding B3, in series [1], the “product formation … (Rg3)” value is “can catalyze the extension of a glucosyl at the C-3 glycosyl of Rh2 to generate Rg3”. Besides, the “product formation … (Gypenoside LXXV)” value in series [2] is recorded as “can catalyze the extension of a glucosyl at the C-20 glycosyl to generate Gypenoside LXXV”. Further, the “product formation from Rd and UDP-glucose (Rb1)” value in series [3] is “can catalyze the extension of a glucosyl at the C-20 glycosyl of Rd to generate Rb1”.
